Experiments:
POC1+POC2+POC3 assembly = test: SAXS; POC1+POC2+POC3 (1:1:1) at 50 μM; beamline B21, Diamond Light Source
POC3 = test: SAXS; each POC alone, 50 μM; oligomeric state from the total scattering
POC2 = test: as above
POC1 = test: as above

POC1+POC2+POC3 assembly (complex)
stoichiometry N (POC1+POC2+POC3 assembly): 2

POC3
stoichiometry N (POC3): 3

POC2
stoichiometry N (POC2): 3

POC1
stoichiometry N (POC1): 2

Reference: PMC4974474
